Measurements taken from publication PMC8863788, “A multiparametric fluorescence assay for screening aptamer–protein interactions based on microbeads”.

Assays:
Test in all cases: fluorescent microbead binding (VideoScan)
Interferon gamma (IFNγ) = Interferon gamma (IFNγ) (UniProt P01579 24-161); details: protein: commercial; chain copies: 2
PfLDH = PfLDH (UniProt Q76NM3 1-316); details: protein: recombinant; chain copies: 4
Thrombin = Thrombin (UniProt P00734;P00734 328-363;364-622)

Chain of Interferon gamma (IFNγ) (P01579 24-161): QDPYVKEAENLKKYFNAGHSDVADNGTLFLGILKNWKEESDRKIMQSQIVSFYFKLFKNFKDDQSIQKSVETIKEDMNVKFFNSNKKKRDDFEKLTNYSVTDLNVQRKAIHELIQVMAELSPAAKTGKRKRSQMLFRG

CTGGGCGGTAGAACCATAGTGACCCAGCCGTCTAC (structured_DNA) [PfLDH-apta] was tested, and the binding signal (Interferon gamma (IFNγ)) was ~6 fold signal increase, the binding signal (PfLDH) was ~2 fold signal vs no divalent cations and the binding signal (Thrombin) was ~8 fold signal increase.
